Reference: patent US20180094045A1 (ASCLEPIUS SUZHOU TECHNOLOGY COMPANY GROUP, published 2018)

Key:
[1] = target: T1, Robo1 (ORIGEN Company, number: TP327713) (UniProt Q9Y6N7 26-1651, limits assumed); test: SPR (BIAcore), Robo1 bound on CM5 chip
T1 construct: also called receptor Robo1; target protein Robo1
Method: (§1) The affinity constant between the prepared protein and Robo1 was determined by SPR (Surface Plasmon resonance BIAcore200). The Robo1 (ORIGEN Company, number: TP327713) was bound on CM5 chip and used to analysis the interaction between fusion protein Slit2D2-HSA and receptor Robo1. Kinetic measurements were carried out according to the method referred by Canziani et al. (2004, Anal. Biochem. 325:301-307), simultaneously, the same method was applied to measure the affinity between Slit2N protein (Slit2N is a protein at N-terminal of slit2 with a molecular weight of about 120 KDa) and Robo1.

[2] = target: T1, Robo1 (ORIGEN Company, number: TP327713); test: SPR (BIAcore), Robo1 bound on CM5 chip; column head 'Kd (nM)'
Method: as §1

T1 sequence (Q9Y6N7 26-1651 limits assumed): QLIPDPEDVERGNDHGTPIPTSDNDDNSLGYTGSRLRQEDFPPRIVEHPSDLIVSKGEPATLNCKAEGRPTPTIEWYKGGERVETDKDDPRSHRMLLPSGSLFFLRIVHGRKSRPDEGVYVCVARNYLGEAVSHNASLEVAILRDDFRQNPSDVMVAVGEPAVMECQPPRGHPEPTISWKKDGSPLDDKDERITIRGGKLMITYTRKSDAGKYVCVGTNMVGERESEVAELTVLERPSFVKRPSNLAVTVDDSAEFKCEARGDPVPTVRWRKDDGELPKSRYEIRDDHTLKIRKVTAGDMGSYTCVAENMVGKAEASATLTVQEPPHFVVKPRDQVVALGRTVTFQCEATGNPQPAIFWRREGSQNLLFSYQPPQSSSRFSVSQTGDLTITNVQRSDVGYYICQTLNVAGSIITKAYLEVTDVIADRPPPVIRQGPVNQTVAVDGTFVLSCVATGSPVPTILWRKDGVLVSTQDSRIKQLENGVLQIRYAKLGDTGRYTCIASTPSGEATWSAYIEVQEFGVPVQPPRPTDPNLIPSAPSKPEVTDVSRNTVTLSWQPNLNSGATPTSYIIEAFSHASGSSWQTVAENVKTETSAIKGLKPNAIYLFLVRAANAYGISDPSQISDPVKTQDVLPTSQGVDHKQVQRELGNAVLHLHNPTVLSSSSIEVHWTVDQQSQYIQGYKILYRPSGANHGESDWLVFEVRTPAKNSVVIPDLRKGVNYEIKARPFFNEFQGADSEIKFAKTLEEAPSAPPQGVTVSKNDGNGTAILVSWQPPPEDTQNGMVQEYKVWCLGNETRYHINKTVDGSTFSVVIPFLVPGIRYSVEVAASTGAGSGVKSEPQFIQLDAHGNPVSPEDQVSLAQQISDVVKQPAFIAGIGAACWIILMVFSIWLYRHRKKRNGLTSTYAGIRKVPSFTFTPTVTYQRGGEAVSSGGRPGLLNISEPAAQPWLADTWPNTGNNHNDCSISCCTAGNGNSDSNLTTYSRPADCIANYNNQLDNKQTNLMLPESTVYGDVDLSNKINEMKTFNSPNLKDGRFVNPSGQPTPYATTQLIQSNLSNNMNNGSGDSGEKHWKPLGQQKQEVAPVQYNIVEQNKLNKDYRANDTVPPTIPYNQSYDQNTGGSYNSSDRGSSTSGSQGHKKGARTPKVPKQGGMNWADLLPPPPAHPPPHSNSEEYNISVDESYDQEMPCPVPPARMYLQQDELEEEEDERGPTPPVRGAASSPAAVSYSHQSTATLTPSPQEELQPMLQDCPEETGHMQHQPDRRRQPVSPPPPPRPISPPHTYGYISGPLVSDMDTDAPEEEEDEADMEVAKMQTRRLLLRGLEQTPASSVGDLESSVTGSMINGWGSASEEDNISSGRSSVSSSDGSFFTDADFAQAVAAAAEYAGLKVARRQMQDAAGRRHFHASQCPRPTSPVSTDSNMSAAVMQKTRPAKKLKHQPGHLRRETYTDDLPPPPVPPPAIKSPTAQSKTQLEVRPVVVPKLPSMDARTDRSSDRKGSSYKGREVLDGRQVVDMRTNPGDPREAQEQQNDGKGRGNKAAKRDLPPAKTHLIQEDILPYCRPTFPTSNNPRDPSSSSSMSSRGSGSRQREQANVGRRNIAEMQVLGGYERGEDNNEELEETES

- kon [1]: 744000 M⁻¹ s⁻¹
- Kd [2]: 4.5 nM
B1: Slit2N protein (ligand, UniProt O94813 31-1121, looked up)
chain: QCSCSGSTVDCHGLALRSVPRNIPRNTERLDLNGNNITRITKTDFAGLRHLRVLQLMENKISTIERGAFQDLKELERLRLNRNHLQLFPELLFLGTAKLYRLDLSENQIQAIPRKAFRGAVDIKNLQLDYNQISCIEDGAFRALRDLEVLTLNNNNITRLSVASFNHMPKLRTFRLHSNNLYCDCHLAWLSDWLRQRPRVGLYTQCMGPSHLRGHNVAEVQKREFVCSGHQSFMAPSCSVLHCPAACTCSNNIVDCRGKGLTEIPTNLPETITEIRLEQNTIKVIPPGAFSPYKKLRRIDLSNNQISELAPDAFQGLRSLNSLVLYGNKITELPKSLFEGLFSLQLLLLNANKINCLRVDAFQDLHNLNLLSLYDNKLQTIAKGTFSPLRAIQTMHLAQNPFICDCHLKWLADYLHTNPIETSGARCTSPRRLANKRIGQIKSKKFRCSAKEQYFIPGTEDYRSKLSGDCFADLACPEKCRCEGTTVDCSNQKLNKIPEHIPQYTAELRLNNNEFTVLEATGIFKKLPQLRKINFSNNKITDIEEGAFEGASGVNEILLTSNRLENVQHKMFKGLESLKTLMLRSNRITCVGNDSFIGLSSVRLLSLYDNQITTVAPGAFDTLHSLSTLNLLANPFNCNCYLAWLGEWLRKKRIVTGNPRCQKPYFLKEIPIQDVAIQDFTCDDGNDDNSCSPLSRCPTECTCLDTVVRCSNKGLKVLPKGIPRDVTELYLDGNQFTLVPKELSNYKHLTLIDLSNNRISTLSNQSFSNMTQLLTLILSYNRLRCIPPRTFDGLKSLRLLSLHGNDISVVPEGAFNDLSALSHLAIGANPLYCDCNMQWLSDWVKSEYKEPGIARCAGPGEMADKLLLTTPSKKFTCQGPVDVNILAKCNPCLSNPCKNDGTCNSDPVDFYRCTCPYGFKGQDCDVPIHACISNPCKHGGTCHLKEGEEDGFWCICADGFEGENCEVNVDDCEDNDCENNSTCVDGINNYTCLCPPEYTGELCEEKLDFCAQDLNPCQHDSKCILTPKGFKCDCTPGYVGEHCDIDFDDCQDNKCKNGAHCTDAVNGYTCICPEGYSGLFCEFSPPMVLPR
notes: domain: protein at N-terminal of slit2 with a molecular weight of about 120 KDa; Comparator in the SPR experiment
